Source: US20240270861A1
Each block holds one substance with its values, some of them ahead of it.

Assays:
[1] = target: human BAFF-R (B cell-activating factor receptor) expressed on cells (human) (UniProt Q96RJ3); assay: cell-based or functional assay
[2] = target: human BAFF-R (B cell-activating factor receptor) expressed on cells (human) (UniProt Q96RJ3); assay: BAFF-biotin blocking, flow cytometry, hBAFF-R CHO cells; competitor BAFF-biotin
[3] = target: poly-specificity reagent (PSR): detergent solubilized CHO cell membrane proteins; assay: flow cytometry PSR assay: test article captured on protein A beads, biotinylated PSR detected with streptavidin-PE, anti-human Fc for expression; control panel without PSR (FIG. 71D) prints Q2 0.019
[4] = target: poly-specificity reagent (PSR): detergent solubilized CHO cell membrane proteins; assay: flow cytometry PSR assay: test article on Protein A coated beads, biotinylated PSR, read-out with SA-PE
[5] = target: poly-specificity reagent (PSR): detergent solubilized CHO cell membrane proteins; assay: PSR assay: molecule on protein A beads, biotinylated PSR, SA-PE read out by flow cytometry; + PSR panel
[6] = target: poly-specificity reagent (PSR): detergent solubilized CHO cell membrane proteins; assay: flow cytometry PSR assay: test article captured on protein A beads, biotinylated PSR detected with streptavidin-PE, anti-human Fc for expression; control panel without PSR (FIG. 71C) prints Q2 0.020

Substance: F3′ isotype control (F3′-palivizumab) (bispecific antibody)
KHYG-1-CD16a cytotoxicity on BJAB cells, Max killing (%) [1]: 48%

Substance: Ixekizumab (antibody)
percent of events in Q2 (Expression-FITC positive, Binding-PE positive), + PSR [4]: 79.6%

Substance: Ixekuzumab (antibody)
% of events in quadrant Q2 (PSR binding+) [5]: 27.1%

Substance: trastuzumab (antibody)
percent of events in Q2 (Expression-FITC positive, Binding-PE positive), + PSR [4]: 0.087%
events in quadrant Q2 (Expression-FITC positive, Binding-PE positive), + PSR [6]: 0.067%

Second part, the substance after the results:

Minimum (MFI) [2]: 68000 MFI
Substance: Human IgG1k (antibody)

events in quadrant Q2 (Expression-FITC positive, Binding-PE positive), + PSR [3]: 79.6%
Substance: Ixekizumab (PSR positive control) (antibody)

percent of events in Q2 (Expression-FITC positive, Binding-PE positive), + PSR [4]: 56.2%
Substance: Rituximab (antibody)
